# Assay results: patent US20180236141A1
# Target: integrin α2β1 on platelets (UniProt P17301)
# Assay: cell-based or functional assay
substance,measurement,value
Collagen type I (ligand),platelet aggregation,> 90%
